Kd data for 28 molecules are collected here from US20240383984A1 (Genentech, published 2024).

Where a chain is given by its changes, count along the chain named. Names and notes keep the numbering of the source.

Experiment [1] concerns the target T1, human FcRH5 protein fragment (soluble) (human, UniProt Q96RD9 16-851).
T1 construct: whole entry named; also called soluble human FcRH5; Human FcRH5 (BIACORE analyte)
T1 sequence: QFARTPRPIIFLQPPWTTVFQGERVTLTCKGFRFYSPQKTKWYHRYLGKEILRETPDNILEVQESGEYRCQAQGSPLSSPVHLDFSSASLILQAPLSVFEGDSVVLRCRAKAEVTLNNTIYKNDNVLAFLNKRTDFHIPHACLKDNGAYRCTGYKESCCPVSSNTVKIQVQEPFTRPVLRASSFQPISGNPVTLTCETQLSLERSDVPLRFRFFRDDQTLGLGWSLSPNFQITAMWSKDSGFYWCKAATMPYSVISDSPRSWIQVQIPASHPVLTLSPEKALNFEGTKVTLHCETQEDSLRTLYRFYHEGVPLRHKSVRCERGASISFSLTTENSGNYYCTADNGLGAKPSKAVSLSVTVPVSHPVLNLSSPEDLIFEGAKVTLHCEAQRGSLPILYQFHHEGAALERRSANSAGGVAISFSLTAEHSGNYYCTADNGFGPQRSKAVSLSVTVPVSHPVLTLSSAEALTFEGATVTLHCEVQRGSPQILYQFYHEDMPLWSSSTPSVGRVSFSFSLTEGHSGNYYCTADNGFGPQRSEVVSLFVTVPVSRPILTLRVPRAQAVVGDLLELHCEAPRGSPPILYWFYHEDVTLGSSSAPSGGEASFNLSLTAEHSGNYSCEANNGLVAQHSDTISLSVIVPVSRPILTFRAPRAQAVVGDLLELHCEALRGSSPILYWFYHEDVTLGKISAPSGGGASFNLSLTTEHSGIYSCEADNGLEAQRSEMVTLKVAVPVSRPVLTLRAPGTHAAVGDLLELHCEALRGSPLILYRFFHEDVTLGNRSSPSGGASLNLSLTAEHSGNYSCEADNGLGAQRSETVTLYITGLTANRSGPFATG
Briefly: SPR, hIgG capture, screening. As for the experimental part:
(§1) Briefly, a human IgG capture surface was generated on a Series S CM5 chip using amine coupling and the human IgG capture kit (GE Life Sciences, Piscataway, NJ). Test antibodies were then captured on flow cells 2, 3, or 4, with flow cell 1 used as a reference. An FcRH5 protein fragment was used as the analyte, with a flow rate of […]. Between injections the capture surface was regenerated by a 30-second injection of 3M magnesium chloride or 10 mM glycine, pH 1.5. Interactions were assessed at 25° C. in 10 mM HEPES pH7.4, 150 mM NaCl, and 0.05% Tween 20 (HBSP). Reference data from the reference flow cell and from injection of buffer alone were subtracted prior to kinetic analysis. Kinetic information was calculated by fitting data to a 1:1 binding model. Reference subtraction and data fitting were performed using BIAevaluation software (GE Life Sciences, Piscataway, NJ).
(§2) For affinity screening of HVR-H2 Trp52 and Met64 variants (Table 7), antibodies were expressed by transient transfection of Expi293 cells and purified using tip columns that were custom packed with affinity resin MabSelect SuRe (Glygen Corp., Columbia, MD & GE Life Sciences, Piscataway, NJ). […] Binding of FcRH5 protein fragment to captured antibodies was monitored at 100 nM and 500 nM. Association and dissociation were monitored at a flow rate of 40 μl/min, for 180 s and 300 s, respectively.
Background: SPR reads the build-up and loss of mass on a sensor chip optically.

In experiment [2] the target is T1, human FcRH5 protein fragment (soluble). The experiment is described as follows: SPR (BIACORE), IgG captured via anti-human IgG, FcRH5 protein fragment as analyte (100 and 500 nM). The protocol:
as §1, §2

B1: hu1G7.v1 heavy chain M64F with light chain of hu1G7.v1 (antibody, V domains shown)
VH: EVQLVESGPGLVKPSETLSLTCTVSGFSLTRFGVHWVRQPPGKGLEWLGVIWRGGSTDYNAAFFSRLTISKDNSKNQVSLKLSSVTAADTAVYYCSNHYYGSSDYALDNWGQGTLVTVSS
VL: DIQMTQSPSSLSASVGDRVTITCKASQDVSNIVVWFQQKPGKSPKLLIYSASYRYTGVPSRFSGSGSGTDFTLTISSLQPEDFATYYCQQHYSSPYTFGQGTKVEIK
notes: human IgG
As a reminder, the Kd is the free concentration of one partner at which half of the binding sites on the other are occupied at equilibrium, for simple one-to-one binding. In the case of B1, the Kd in experiment [1] was 26 nM; in experiment [2], 25.9 nM.

B2: hu1G7.v1 heavy chain M64I with light chain of hu1G7.v1.4 (antibody, V domains shown)
VH: B1 VH with F64I
VL: B1 VL with S30R, I32L, S43A, A51G, T56S, S94P
notes: human IgG
For the molecule B2, the Kd in experiment [1] and in experiment [2] was 2.5 nM throughout.

B3: hu1G7.v1 heavy chain M64F with light chain of hu1G7.v1.3 (antibody, V domains shown)
VH: B1 VH
VL: B1 VL with S30R, S43A, A51G, T56S, H91Q, S94P
notes: human IgG
For the molecule B3, the Kd in experiment [1] and in experiment [2] was 2.2 nM each time.

B4: hu1G7.v1 heavy chain M64F with light chain of hu1G7.v1.7 (antibody, V domains shown)
VH: B1 VH
VL: B1 VL with S30R, I32L, S43A, A51G, S52Y, S93Q, S94P
notes: human IgG
On to B4, for which the Kd in experiment [1] and in experiment [2] was 2.4 nM in each case.

B5: hu1G7.v1 heavy chain M64L with light chain of hu1G7.v1.4 (antibody, V domains shown)
VH: B1 VH with F64L
VL: B1 VL with S30R, I32L, S43A, A51G, T56S, S94P
notes: human IgG
In the case of B5, the Kd in experiment [1] and in experiment [2] was 2.5 nM in each case.

B6: hu1G7.v1 heavy chain M64L with light chain of hu1G7.v1 (antibody, V domains shown)
VH: B1 VH with F64L
VL: B1 VL
notes: human IgG
For the molecule B6, the Kd in experiment [1] came to 27 nM; in experiment [2] it was 26.5 nM.

B7: hu1G7.v1 heavy chain W52F with light chain of hu1G7.v1.6 (antibody, V domains shown)
VH: B1 VH with W52F, F64M
VL: B1 VL with S43A, A51G, S52Y, T56S, H91Q, S93Q, S94P
notes: human IgG
B7: the Kd is 81 nM in experiment [1] and 81.4 nM in experiment [2].

B8: hu1G7.v1 heavy chain W52F with light chain of hu1G7.v1.5 (antibody, V domains shown)
VH: B1 VH with W52F, F64M
VL: B1 VL with A51G, S52Y, H91Q, Y92F, S93Q, S94P
notes: human IgG
As to B8, the Kd in experiment [1] amounted to 48 nM; in experiment [2], 47.5 nM.

B9: hu1G7.v1 heavy chain W52F with light chain of hu1G7.v1.4 (antibody, V domains shown)
VH: B1 VH with W52F, F64M
VL: B1 VL with S30R, I32L, S43A, A51G, T56S, S94P
notes: human IgG
For the molecule B9, the Kd in experiment [1] turned out to be 120 nM; in experiment [2], 119 nM.

B10: hu1G7.v1 heavy chain M64F with light chain of hu1G7.v1.5 (antibody, V domains shown)
VH: B1 VH
VL: B1 VL with A51G, S52Y, H91Q, Y92F, S93Q, S94P
notes: human IgG
Take B10: the Kd in experiment [1] and in experiment [2] was 1.4 nM in each case.

B11: hu1G7.v1 heavy chain M64V with light chain of hu1G7.v1.3 (antibody, V domains shown)
VH: B1 VH with F64V
VL: B1 VL with S30R, S43A, A51G, T56S, H91Q, S94P
notes: human IgG
B11: the Kd in experiment [1] and in experiment [2] was 2.5 nM each time.

B12: hu1G7.v1 heavy chain M64L with light chain of hu1G7.v1.6 (antibody, V domains shown)
VH: B1 VH with F64L
VL: B1 VL with S43A, A51G, S52Y, T56S, H91Q, S93Q, S94P
notes: human IgG
As to B12, the Kd in experiment [1] and in experiment [2] was 2.6 nM each time.

B13: hu1G7.v1 heavy chain M64V with light chain of hu1G7.v1.7 (antibody, V domains shown)
VH: B1 VH with F64V
VL: B1 VL with S30R, I32L, S43A, A51G, S52Y, S93Q, S94P
notes: human IgG
Consider B13, for which the dissociation constant (Kd) in experiment [1] and in experiment [2] was 2.5 nM in each case.

B14: hu1G7.v1 heavy chain W52F with light chain of hu1G7.v1.7 (antibody, V domains shown)
VH: B1 VH with W52F, F64M
VL: B1 VL with S30R, I32L, S43A, A51G, S52Y, S93Q, S94P
notes: human IgG
Regarding B14, the Kd in experiment [1] is 77 nM; in experiment [2], 76.6 nM.

B15: hu1G7.v1 heavy chain M64L with light chain of hu1G7.v1.5 (antibody, V domains shown)
VH: B1 VH with F64L
VL: B1 VL with A51G, S52Y, H91Q, Y92F, S93Q, S94P
notes: human IgG
As for B15, the Kd in experiment [1] and in experiment [2] was 2.3 nM each time.

B16: hu1G7.v1 heavy chain M64L with light chain of hu1G7.v1.3 (antibody, V domains shown)
VH: B1 VH with F64L
VL: B1 VL with S30R, S43A, A51G, T56S, H91Q, S94P
notes: human IgG
Regarding B16, the Kd in experiment [1] and in experiment [2] was 2.4 nM throughout.

B17: hu1G7.v1 heavy chain M64I with light chain of hu1G7.v1 (antibody, V domains shown)
VH: B1 VH with F64I
VL: B1 VL
notes: human IgG
Regarding B17, the Kd in experiment [1] was 30 nM; in experiment [2] it was 29.8 nM.

B18: hu1G7.v1 heavy chain W52F with light chain of hu1G7.v1.3 (antibody, V domains shown)
VH: B1 VH with W52F, F64M
VL: B1 VL with S30R, S43A, A51G, T56S, H91Q, S94P
notes: human IgG
With B18, the Kd turned out to be 180 nM in experiment [1] and 177 nM in experiment [2].

B19: hu1G7.v1 heavy chain M64V with light chain of hu1G7.v1.6 (antibody, V domains shown)
VH: B1 VH with F64V
VL: B1 VL with S43A, A51G, S52Y, T56S, H91Q, S93Q, S94P
notes: human IgG
On to B19, for which the Kd in experiment [1] and in experiment [2] was 2.7 nM throughout.

B20: hu1G7.v1 heavy chain M64F with light chain of hu1G7.v1.4 (antibody, V domains shown)
VH: B1 VH
VL: B1 VL with S30R, I32L, S43A, A51G, T56S, S94P
notes: human IgG
With B20, the Kd in experiment [1] and in experiment [2] was 2.5 nM each time.

B21: hu1G7.v1 heavy chain M64I with light chain of hu1G7.v1.7 (antibody, V domains shown)
VH: B1 VH with F64I
VL: B1 VL with S30R, I32L, S43A, A51G, S52Y, S93Q, S94P
notes: human IgG
Consider B21, for which the Kd in experiment [1] and in experiment [2] was 2.6 nM throughout.

B22: hu1G7.v1 heavy chain M64I with light chain of hu1G7.v1.5 (antibody, V domains shown)
VH: B1 VH with F64I
VL: B1 VL with A51G, S52Y, H91Q, Y92F, S93Q, S94P
notes: human IgG
As to B22, the Kd in experiment [1] and in experiment [2] was 2.7 nM throughout.

B23: hu1G7.v1 heavy chain W52F with light chain of hu1G7.v1 (antibody, V domains shown)
VH: B1 VH with W52F, F64M
VL: B1 VL
notes: human IgG
For the molecule B23, the Kd in experiment [1] came out at 250 nM; in experiment [2] it was 254 nM.

B24: hu1G7.v1 heavy chain M64I with light chain of hu1G7.v1.6 (antibody, V domains shown)
VH: B1 VH with F64I
VL: B1 VL with S43A, A51G, S52Y, T56S, H91Q, S93Q, S94P
notes: human IgG
For the molecule B24, the dissociation constant Kd in experiment [1] and in experiment [2] was 2.7 nM in each case.

B25: hu1G7.v1 heavy chain M64I with light chain of hu1G7.v1.3 (antibody, V domains shown)
VH: B1 VH with F64I
VL: B1 VL with S30R, S43A, A51G, T56S, H91Q, S94P
notes: human IgG
Consider B25, for which the Kd in experiment [1] and in experiment [2] was 2.1 nM throughout.

B26: hu1G7.v1 heavy chain M64F with light chain of hu1G7.v1.6 (antibody, V domains shown)
VH: B1 VH
VL: B1 VL with S43A, A51G, S52Y, T56S, H91Q, S93Q, S94P
notes: human IgG
B26: the Kd in experiment [1] and in experiment [2] was 2.6 nM each time.

B27: hu1G7.v1 heavy chain M64V with light chain of hu1G7.v1.5 (antibody, V domains shown)
VH: B1 VH with F64V
VL: B1 VL with A51G, S52Y, H91Q, Y92F, S93Q, S94P
notes: human IgG
As for B27, the Kd in experiment [1] and in experiment [2] was 2.5 nM throughout.

B28: hu1G7.v1 heavy chain W52H with light chain of hu1G7.v1 (antibody, V domains shown)
VH: B1 VH with W52H, F64M
VL: B1 VL
notes: human IgG
For B28, the Kd in experiment [1] and in experiment [2] was 120 nM throughout.
